Experiment [1] concerns the target T1, IL-4 receptor expressed by parental CTLL cells (UniProt P16382 26-810, limits assumed).
T1 construct: whole, on cells; Endogenous receptor of untransfected CTLL cells; also called IL-4 receptors expressed by CTLL cells; IL-4Rα
T1 sequence (looked up): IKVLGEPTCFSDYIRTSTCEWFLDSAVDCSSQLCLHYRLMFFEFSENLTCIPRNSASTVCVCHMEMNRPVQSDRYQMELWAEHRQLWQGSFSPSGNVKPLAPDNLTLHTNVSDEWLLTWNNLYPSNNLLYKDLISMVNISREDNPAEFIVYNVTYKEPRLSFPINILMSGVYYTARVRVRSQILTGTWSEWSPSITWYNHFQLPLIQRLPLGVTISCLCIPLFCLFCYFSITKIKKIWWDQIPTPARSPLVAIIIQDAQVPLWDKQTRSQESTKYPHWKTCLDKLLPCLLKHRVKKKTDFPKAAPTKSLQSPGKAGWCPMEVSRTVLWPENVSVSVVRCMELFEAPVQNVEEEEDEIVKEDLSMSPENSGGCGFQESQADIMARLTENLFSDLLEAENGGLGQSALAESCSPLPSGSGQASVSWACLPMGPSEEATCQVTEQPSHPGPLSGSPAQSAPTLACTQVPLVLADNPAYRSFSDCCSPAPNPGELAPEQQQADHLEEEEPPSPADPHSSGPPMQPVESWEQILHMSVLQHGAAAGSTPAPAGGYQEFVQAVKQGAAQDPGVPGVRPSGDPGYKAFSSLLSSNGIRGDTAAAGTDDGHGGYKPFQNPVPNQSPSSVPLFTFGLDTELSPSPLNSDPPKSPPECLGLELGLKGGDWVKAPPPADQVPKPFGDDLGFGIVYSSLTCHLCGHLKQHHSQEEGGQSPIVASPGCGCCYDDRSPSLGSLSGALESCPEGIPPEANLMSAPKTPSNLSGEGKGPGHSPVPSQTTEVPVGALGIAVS
Nature of the experiment: 125I-IL-4 saturation binding (Scatchard) on parental CTLL cells.

Experiment [2] has as its target T1, IL-4 receptor expressed by parental …. In words: 125I-IL-13 saturation binding on parental CTLL cells.

A word on the Kd: it is the constant that tells how readily two partners part at equilibrium.

B1: IL-4 (obtained commercially, R & D Systems) (ligand, UniProt P07750 23-140, looked up)
chain: HGCDKNHLREIIGILNEVTGEGTPCTEMDVPNVLTATKNTTESELVCRASKVLRIFYLKHGKTPCLKKNSSVLMELQRLFRAFRCLDSSISCTMNESKSTSLKDFLESLKSIMQMDYS
modifications: radiolabelled with di-iodo-Bolton-Hunter reagent (125I) where used as tracer
notes: also called interleukin-4
Take B1: the Kd in experiment [1] is ~0.66 nM.

B2: IL-13 (obtained commercially, R & D Systems) (ligand, UniProt P20109 19-131, looked up)
chain: APGPVPRSVSLPLTLKELIEELSNITQDQTPLCNGSMVWSVDLAAGGFCVALDSLTNISNCNAIYRTQRILHGLCNRKAPTTVSSLPDTKIEVAHFITKLLSYTKQLFRHGPF
modifications: radioiodinated (125I, iodine monochloride method) where used as tracer
notes: also called interleukin-13
B2: the binding result in experiment [2] is “no binding”.
